Results taken from patent publication US9777041B2, “Protein nanofibers from self-assembling pentamers” (New York University, priority 2013, dated 2017).

Experiments:
[1] = Circular dichroism thermal melts at 222 nm, van't Hoff analysis; type: physicochemical; details: for Tm: 10 μM protein; for ΔG° (free energy of folding): at 25° C.; for ΔS°: ΔS° = ΔH°/Tm
Method: (§1) Circular dichroism: Circular dichroism (CD) measurements were conducted on a Jasco J-815 CD spectrometer. Wavelength and temperature scans were conducted with 10 μM (6.3×10^−2 mg/mL) protein concentrations. The wavelength spectrum was measured over a range from 190 to 250 nm with a step size of 1 nm Mean residue ellipticity (MRE) was calculated from raw data according to the procedure described in Gunasekar et al. 2009. Secondary structure analysis of α-helical, β-sheet, and random coil content was calculated with the K2D method using DichroWeb software. Temperature scans of each protein were performed over a range of 20-85° C. with a temperature step of 1° C./min at 222 nm. Scans were also performed at of 2° C./min and 5° C./min to evaluate dependence of thermal melt signatures on scan speed. All measurements were made in duplicates of independently prepared proteins and data represents the average. Thermodynamic properties of wt and Q were determined through analysis of thermal melts. A two-state model was used, where assumptions included monophasic behavior and reversible melting behavior. These assumptions were confirmed experimentally by melting (from 20 to 85° C.) and cooling (from 85 to 20° C.) the proteins. Calculation of thermodynamic parameters including Tm, ΔG°, ΔH°, and ΔS° were performed according to the method described by Greenfield.
Thermodynamic properties were assessed via thermal melt of the proteins at 222 nm. Prior to calculating thermodynamic constants, assumptions of monophasic behavior and melt reversibility were confirmed experimentally for wt and Q at all pHs by melting and cooling proteins (FIGS. 18a-18d). The van't Hoff equation was applied to thermal melts of the proteins in the range of 20-85° C.

[2] = Curcumin binding fluorescence; details: in the presence of Zn^2+
Excerpt: FIG. 40. Fluorescence of C and Q or with incorporated trifluoroleucine/TFL (C TFL and Q TFL) in the presence of no metal, Ni (II), or Zn (II) and curcumin. An increase in fluorescence indicates structural stability of the protein as it is able to bind with curcumin, the fluorescent probe in this case.

[3] = ATR-FTIR secondary structure of solid-state protein; type: physicochemical; details: for Random, percent composition / α helix, percent composition / β sheet, percent composition: 10 μM protein in 50 mM PB
Method: Attenuated Total Reflectance Fourier Transform Infrared Spectroscopy (ATR-FTIR): ATR-FTIR experiments were performed using Perkin Elmer System 2000 FT-IR with DuraSamplIR II T diamond ATR accessory and equipped with a MCT-A detector. Approximately, 5 μL of peptide solution (10 μM in 50 mM PB, pH 4, 8, and 10) was added on the diamond ATR surface. The spectrum (128 scans) was measured at room temperature over a range of 4000-400 cm^−1 with 0.5 cm^−1 resolution. PeakFit software was used to process the data, which involved a 2nd derivative zero baseline correction of the amide I region between 1700-1600 cm^−1 and deconvolution of peaks with a Gaussian function. All readings represent the average of two trials.
To quantifying the secondary structure of the protein in its solid-state, ATR-FTIR experiments were conducted to evaluate secondary structure of insoluble Q fibers at pH 4, 8, and 10 (Table 8). The frequency measured in the regions of the amide I and amide II absorptions of a protein correlate to the secondary structural motifs within the protein, and were thereby used to assess conformation of the protein in its solid-state (FIGS. 20a-20d). Secondary structure conformation based on ATR-FTIR data for Q in 50 mM PB at pH 4, 8, and 10, and in the presence of curcumin at a 5:1 molar ratio with Q at pH 4 are shown in […]. Percent composition was determined from relative areas of peaks fit to spectra (FIGS. 20a-20d).
Secondary structure conformation based on ATR-FTIR data for 10 μM protein in 50 mM PB before and after templation of AuNPs is provided in Table 10. Percent composition was determined from relative areas of peaks fit to spectra (see spectra FIGS. 37a-37d, FIGS. 38a-38d).

[4] = Zeta potential; type: physicochemical; details: 10 μM protein, pH 4
Method: Zeta potential: Zeta potential measurements were performed on a Zetasizer Nano Series model Nano Z590. 50 mM phosphate buffer at pH 4 was used to saturate the clear polycarbonate disposable zeta cell DTS1060C prior to injecting 750 μL protein samples at protein concentrations of 10 μM. The following settings were used for zeta potential measurements in the DTS (Nano) software: […] instrument settings, Smoluvchoski model, material protein, dispersant PBS, temperature of 25° C., viscosity 1.0200 cP, and dielectric constant of […]. Measurements were taken in triplicates, conducting 10 runs for each measurement, with a delay time of 2 seconds between each measurement.

[5] = Circular dichroism wavelength scans (secondary structure); type: physicochemical; details: for −θ222 × 10^3 / −θmin × 10^3: 10 μM protein; for random coil / α helices / β sheet: CD, K2D method
Method: as §1
To assess the secondary structure of the proteins under acidic as well as neutral and basic conditions in solution, CD measurements were performed. […] The presence of residue P28 towards the center of Q may have influenced the secondary structure, showing decreased helical content when compared to wt at pH 4 and 10 (FIG. 16). The negative control, L, was completely unstructured, devoid of helical content at pH 4 (FIG. 11). […] As the pH increased, the helical content of soluble Q protein increased.
Mean residual ellipticities from circular dichroism measurements at pH 4, 8, and 10 for wt, L, and Q. The data presented in Table 5 represents the average and standard deviation of at least two replicates.

[6] = curcumin at 5:1 molar ratio, pH 4

Q: Q54 protein, SEQ ID NO:2, variant of COMPcc; coiled-coil that self-assembles into homopentamers and nanofibers (MRGSHHHHHHGSIEGRVKEITFLKNTAPQMLRELQETNAALQDVRELLRQQSKL)
melting temperatures (Tm) ([1]; across all pH values (4, 8, 10)): 46.4-63.5 °C | increase in Tm compared to the parent wt ([1]; pH 4): 7.2 °C | ΔH° (van't Hoff enthalpy) ([1]; pH 4): -32.3 kcal/mol | Tm ([1]; pH 4): 55.3 °C | ΔG° (free energy of folding) ([1]; pH 4): -3.3 kcal/mol | ΔS° ([1]; pH 4): -97.1 cal/(mol·K) | increase in Tm compared to the parent wt ([1]; pH 8): 14.7 °C | ΔH° (van't Hoff enthalpy) ([1]; pH 8): -32.6 kcal/mol | Tm ([1]; pH 8): 63.5 °C | ΔG° (free energy of folding) ([1]; pH 8): -3.8 kcal/mol | ΔS° ([1]; pH 8): -96.8 cal/(mol·K) | ΔH° (van't Hoff enthalpy) ([1]; pH 10): -46.4 kcal/mol | Tm ([1]; pH 10): 46.4 °C | ΔG° (free energy of folding) ([1]; pH 10): -3.1 kcal/mol | ΔS° ([1]; pH 10): -145 cal/(mol·K) | binding to small molecule (curcumin fluorescence) [2]: substantially increase the binding to small molecule | Random, percent composition ([3]; +AuNP (after templation)): 27% | α helix, percent composition ([3]; +AuNP (after templation)): 30% | β sheet, percent composition ([3]; +AuNP (after templation)): 43% | Random, percent composition ([3]; before templation of AuNPs): 0% | α helix, percent composition ([3]; before templation of AuNPs): 65% | β sheet, percent composition ([3]; before templation of AuNPs): 35% | α helix % composition [3, 6]: 79% | β sheet % composition [3, 6]: 10% | Random coil % composition ([3]; curcumin at 5:1 molar ratio, pH 4, 1640-1648 cm^−1): 12% | β sheet % composition ([3]; pH 4, 50 mM PB, 1625-1640, 1675-1695 cm^−1): 38% | α helix % composition ([3]; pH 4, 50 mM PB, 1648-1660 cm^−1): 62% | α helix % composition ([3]; pH 8, 50 mM PB): 63% | β sheet % composition ([3]; pH 8, 50 mM PB): 37% | α helix % composition ([3]; pH 10, 50 mM PB): 68% | β sheet % composition ([3]; pH 10, 50 mM PB): 32% | zeta potential ([4]; absence of curcumin): 19.1±2.5 mV | zeta potential, maximum value ([4]; curcumin concentration of 40 μM): 25.2±0.8 mV | double minimum, ellipticity at 206 nm ([5]; 206 nm, pH 4 (Table 5)): −6.54×10^3 deg cm^2 dmol^−1 | double minimum, ellipticity at 222 nm ([5]; 222 nm, pH 4 (Table 5)): −3.71×10^3 deg cm^2 dmol^−1 | −θ222 × 10^3 ([5]; pH 4): 3.71 10^3 deg cm^2 dmol^-1 | −θmin × 10^3 ([5]; pH 4): 6.54 10^3 deg cm^2 dmol^-1 | random coil ([5]; pH 4): 55% | α helices ([5]; pH 4): 9% | β sheet ([5]; pH 4): 36% | −θ222 × 10^3 ([5]; pH 8): 6.63 10^3 deg cm^2 dmol^-1 | −θmin × 10^3 ([5]; pH 8): 7.79 10^3 deg cm^2 dmol^-1 | random coil ([5]; pH 8): 57% | α helices ([5]; pH 8): 22% | β sheet ([5]; pH 8): 21% | −θ222 × 10^3 ([5]; pH 10): 6.76 10^3 deg cm^2 dmol^-1 | −θmin × 10^3 ([5]; pH 10): 8.07 10^3 deg cm^2 dmol^-1 | random coil ([5]; pH 10): 57% | α helices ([5]; pH 10): 25% | β sheet ([5]; pH 10): 18%
